According to the supplement of paper PMC9732359:
± gives the uncertainty stated by the source.

Assay: protein stability index of a GFP-peptide fusion (yeast GPS) (PSI 1-4); higher = more stable; sorted into four equal gates, so the index is relative within each strain
Summary of the method: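 Tiled 17-residue yeast protein peptides were fused downstream of GFP in a plasmid that also expresses Cherry, and the pooled library was carried in yeast. Mid-log cultures in leucine-free medium were sorted into four equal gates by GFP/Cherry fluorescence ratio, and plasmids from each gate were PCR-amplified and Illumina-sequenced, with reads assigned to strains by barcodes. The protein stability index for each peptide was each gate's read frequency times its gate number, summed.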

| Sequence | protein stability index (doa10∆) | protein stability index (pdr5∆) | protein stability index (san1∆) | protein stability index (ubr1∆) |
| --- | --- | --- | --- | --- |
| EQELAHILLTELLAYQF [FAS2] | 2.547 ± 0.023 | 2.807 ± 0.025 | 2.67 ± 0.023 | 2.633 ± 0.019 |
| GIAIGLNKGKKVTSMTP [RPL36A] | 3.08 ± 0.18 | 3.13 ± 0.12 |  | 3.15 ± 0.1 |
| TGNTTSKSAFSFGTANT [YOR098C/NUP1] | 2.5 ± 0.064 | 2.72 ± 0.058 | 1.95 ± 0.076 | 2.75 ± 0.056 |
| LISRLCPNSTGAELRSV [RPT1] | 1.85 ± 0.043 | 1.77 ± 0.047 | 1.84 ± 0.073 | 1.73 ± 0.042 |
| VKIGKFIPHGLKRRQVI [SRB8] | 2.48 ± 0.1 | 2.23 ± 0.075 | 3.11 ± 0.06 | 1.95 ± 0.078 |
| RSVRIPWYNNPVSCIIQ [PRP8] | 2.33 ± 0.1 | 2.19 ± 0.068 | 2.02 ± 0.16 | 2.55 ± 0.06 |
| ATMSVFLQRIDFQIDGN [RRI2] | 2.92 ± 0.081 | 2.99 ± 0.066 | 2.95 ± 0.059 | 3.29 ± 0.058 |
| LPYLSDTCAVSFDAVSD [YJR042W/NUP85] | 2.44 ± 0.1 | 2.63 ± 0.059 | 2.55 ± 0.078 | 2.87 ± 0.05 |
| SSKKVFSSNLSYANHLE [YOR098C/NUP1] | 2.31 ± 0.067 | 2.31 ± 0.064 | 2.1 ± 0.078 | 2.48 ± 0.047 |
| GGGRVDKPLLKAGRAFH [RPL2A] | 3.12 ± 0.048 | 3.11 ± 0.043 | 2.95 ± 0.049 | 2.99 ± 0.03 |
| AKKKVLDVTKEAQANLL [RPO21] | 2.41 ± 0.17 | 2.73 ± 0.11 |  | 2.84 ± 0.14 |
| LQAIDLLENPNCFFDVI [DIS3] | 2.48 ± 0.068 | 2.29 ± 0.066 | 3.06 ± 0.056 | 2.38 ± 0.056 |
| NFRILKSFTNDKIPLNY [SRB5] | 2.94 ± 0.054 | 2.77 ± 0.057 | 2.84 ± 0.04 | 2.91 ± 0.036 |
| IEEKLSSFSKKTLTEEV [YIL149C/MLP2] | 2.92 ± 0.054 | 3.07 ± 0.052 | 3.03 ± 0.052 | 3 ± 0.048 |
| FISYHDKYLCMLKTCVF [NUT1] | 2.67 ± 0.057 | 2.95 ± 0.064 | 3.03 ± 0.061 | 2.13 ± 0.042 |
| MNFISKEEFIMMVNISV [PCI8] | 1.41 ± 0.059 | 1.25 ± 0.046 | 1.32 ± 0.16 | 1.37 ± 0.063 |
| NAQSKLSLTLNTHYHAD [SNF2] | 2.76 ± 0.096 | 2.81 ± 0.11 | 2.73 ± 0.13 | 3.09 ± 0.085 |
| SSNILEDILYYSTCPSE [SRB8] | 2.4 ± 0.1 | 2.4 ± 0.075 | 2.77 ± 0.059 | 2.54 ± 0.062 |
| RAGIIIAKLSVIPIRRG [RPS2] | 2.21 ± 0.077 | 2.13 ± 0.047 | 1.31 ± 0.13 | 2.25 ± 0.072 |
| EQSVKTQNSRHYMVHEA [LIN1] | 2.62 ± 0.25 | 2.82 ± 0.11 | 2.49 ± 0.089 |  |
| KRHRSSYYDNDLDETTQ [YML031W/NDC1] | 2.8 ± 0.065 | 2.76 ± 0.071 | 2.68 ± 0.053 | 2.71 ± 0.071 |
| LEQLAQHTTESDNISRK [RPB2] | 3.33 ± 0.12 | 3.35 ± 0.12 | 3.01 ± 0.076 | 3.11 ± 0.13 |
| LGVIHKGNLLEGKKVMA [RPN2] | 1.37 ± 0.07 | 1.33 ± 0.048 | 1.17 ± 0.11 | 1.22 ± 0.057 |
| APSLTVPPIASPQQFLR [PRE2] | 1.56 ± 0.05 | 1.95 ± 0.058 | 1.67 ± 0.071 | 1.65 ± 0.045 |
| YNVCDTSKSLVKRYRLA [SIN4] | 2.39 ± 0.055 | 2.81 ± 0.058 | 2.58 ± 0.062 | 3.16 ± 0.042 |
| KTSKDIAVLRSKEWFQL [FAS1] | 2.01 ± 0.033 | 2.07 ± 0.031 | 1.91 ± 0.046 | 2.25 ± 0.032 |
| IIQLILWSIHPSRQFDH [SRB8] | 1.57 ± 0.047 | 1.47 ± 0.049 | 1.59 ± 0.087 | 1.54 ± 0.05 |

| Sequence | protein stability index (doa10∆) | protein stability index (pdr5∆) | protein stability index (san1∆) | protein stability index (ubr1∆) |
| --- | --- | --- | --- | --- |
| VLCTRLRLSNFFTIDHF [SIR2] | 2.19 ± 0.064 | 1.5 ± 0.057 | 1.5 ± 0.097 | 1.28 ± 0.033 |
| TQPKATSTGTTIVGVKF [PUP1] | 3.48 ± 0.12 | 3.52 ± 0.1 | 3.28 ± 0.1 | 3.03 ± 0.091 |
| IEQSITKNIPITHRDLH [SSN8] | 2.37 ± 0.047 | 2.92 ± 0.041 | 2.53 ± 0.046 | 2.78 ± 0.036 |
| VNNGNIPSQRGTSTTHG [SIR3] | 2.37 ± 0.16 | 2.85 ± 0.088 | 2.78 ± 0.094 | 2.73 ± 0.072 |
| GRLASTIAKQVLNGQKI [RPL16B] | 3.42 ± 0.28 | 2.69 ± 0.11 |  | 2.58 ± 0.13 |
| LIELSGGQRSLIALSLI [SMC2] | 2.42 ± 0.078 | 2.29 ± 0.09 | 1.86 ± 0.1 | 2.27 ± 0.035 |
| QKYTKEMIDSHIKEASE [SNF2] | 2.93 ± 0.06 | 2.88 ± 0.054 | 2.94 ± 0.051 | 3.02 ± 0.037 |
| RDALRNIKNTNEEATPI [RRP6] | 2.76 ± 0.07 | 2.99 ± 0.081 | 2.86 ± 0.06 | 2.94 ± 0.064 |
| DNNNGDDDDEDDDEIVM [SKP1] | 3.04 ± 0.065 | 2.93 ± 0.052 | 2.89 ± 0.04 | 2.99 ± 0.048 |
| DSDGTRLKGDIFCVGSG [PRE2] | 2.88 ± 0.057 | 2.87 ± 0.057 | 2.93 ± 0.091 | 2.45 ± 0.061 |
| TKSHNTVQSWLCDLFVN [NUT1] | 1.55 ± 0.036 | 1.46 ± 0.044 | 1.4 ± 0.09 | 1.54 ± 0.037 |
| QNFAEEDDSSNSCFSDG [REC8] | 2.56 ± 0.15 | 2.59 ± 0.1 | 2.58 ± 0.12 | 3.33 ± 0.12 |
| SLRILAKLSERSNGSVA [YJL039C/NUP192] | 2.5 ± 0.048 | 2.27 ± 0.04 | 1.93 ± 0.067 | 2.42 ± 0.043 |
| PTLVRSVISGNLSLYEA [CSN12] | 2.92 ± 0.085 | 3.05 ± 0.092 | 3.06 ± 0.068 | 2.91 ± 0.054 |
| TGRMRYLKHVSRRFKNG [RPL37A] | 2.67 ± 0.059 | 3.25 ± 0.042 | 3.44 ± 0.048 | 3.38 ± 0.047 |
| VSITPGKIEKIAQSKKK [SRP21] | 1.62 ± 0.081 | 1.8 ± 0.086 | 1.36 ± 0.13 | 1.49 ± 0.06 |
| KILRDNIQGITKPAIRR [HHF1] | 3.17 ± 0.083 | 3.33 ± 0.077 | 3.08 ± 0.055 | 3.21 ± 0.058 |
| DVPAYNVTSFMPFWKFF [SRB8] | 1.62 ± 0.037 | 1.68 ± 0.04 | 1.5 ± 0.06 | 1.56 ± 0.031 |
| YKMVQEQLSKQRDLYKR [SMC2] | 3.1 ± 0.097 | 3.03 ± 0.087 | 2.45 ± 0.16 | 3.09 ± 0.063 |
| MTPVIEKIAAGYMQKPV [PRP28] | 2.16 ± 0.11 | 1.93 ± 0.11 | 1.83 ± 0.14 | 2.68 ± 0.075 |
| SQKTKTIQSDLNLSLHK [SMC2] | 2.35 ± 0.056 | 2.3 ± 0.043 | 2.19 ± 0.071 | 2.67 ± 0.03 |
| GTYIQERNPTQRPQRRY [RPS10A] | 3.01 ± 0.051 | 3.1 ± 0.041 | 3.07 ± 0.034 | 3.14 ± 0.032 |
| SKLGKNLQTVHFGHCFN [GRR1] | 1.42 ± 0.092 |  | 2.68 ± 0.11 | 2.25 ± 0.11 |
| DEDEDNDLDEDDIYDIS [RPN4] |  | 3.46 ± 0.2 | 3.56 ± 0.11 | 3.33 ± 0.15 |
| KVDIFEIPETGEYSVKL [FAS2] | 3.17 ± 0.093 | 3.37 ± 0.08 | 3.27 ± 0.046 | 2.99 ± 0.049 |
| RAIDSLIQKGYLQRGDD [CDC53] | 1.68 ± 0.066 | 1.94 ± 0.069 | 2.17 ± 0.12 | 2.06 ± 0.077 |
